The supplement of paper PMC11246515
± gives the standard deviation of the averaged measurements.

Test: total protein half-life in vivo (active degradation + dilution); higher = more stable protein
[1] = E. coli NCM3722 delta-clpP, growth: N-lim chemostat, doubling time 6 h
[2] = E. coli NCM3722 delta-hslV, growth: N-lim chemostat, doubling time 6 h
[3] = E. coli NCM3722 delta-lon, growth: N-lim chemostat, doubling time 6 h
[4] = E. coli NCM3722 delta-smpB, growth: N-lim chemostat, doubling time 6 h
[5] = wild type E. coli NCM3722, growth: C-lim chemostat, doubling time 3 h
[6] = wild type E. coli NCM3722, growth: C-lim chemostat, doubling time 6 h
[7] = wild type E. coli NCM3722, growth: C-lim chemostat, doubling time 12 h
[8] = wild type E. coli NCM3722, growth: N-lim chemostat, doubling time 6 h
[9] = wild type E. coli NCM3722, growth: N-lim chemostat, doubling time 12 h
[10] = wild type E. coli NCM3722, growth: P-lim chemostat, doubling time 6 h
[11] = wild type E. coli NCM3722, growth: P-lim chemostat, doubling time 12 h
[12] = E. coli NCM3722 delta-clpP delta-lon delta-hslV, growth: N-lim chemostat, doubling time 6 h

| Sequence | total protein half-life in vivo [1] [h] | total protein half-life in vivo [2] [h] | total protein half-life in vivo [3] [h] | total protein half-life in vivo [4] [h] | total protein half-life in vivo [5] [h] | total protein half-life in vivo [6] [h] | total protein half-life in vivo [7] [h] | total protein half-life in vivo [8] [h] | total protein half-life in vivo [9] [h] | total protein half-life in vivo [10] [h] | total protein half-life in vivo [11] [h] | total protein half-life in vivo [12] [h] |
| --- | --- | --- | --- | --- | --- | --- | --- | --- | --- | --- | --- | --- |
| MKYLASFRTTLKASRYMFRALALVLWLLIAFSSVFYIVNALHQRESEIRQEFNLSSDQAQRFIQRTSDVMKELKYIAENRLSAENGVLSPRGRETQADVPAFEPLFADSDCSAMSNTWRGSLESLAWFMRYWRDNFSAAYDLNRVFLIGSDNLCMANFGLRDMPVERDTALKALHERINKYRNAPQDDSGSNLYWISEGPRPGVGYFYALTPVYLANRLQALLGVEQTIRMENFFLPGTLPMGVTILDENGHTLISLTGPESKIKGDPRWMQERSWFGYTEGFRELVLKKNLPPSSLSIVYSVPVDKVLERIRMLILNAILLNVLAGAALFTLARMYERRIFIPAESDALRLEEHEQFNRKIVASAPVGICILRTADGVNILSNELAHTYLNMLTHEDRQRLTQIICGQQVNFVDVLTSNNTNLQISFVHSRYRNENVAICVLVDVSSRVKMEESLQEMAQAAEQASQSKSMFLATVSHELRTPLYGIIGNLDLLQTKELPKGVDRLVTAMNNSSSLLLKIISDILDFSKIESEQLKIEPREFSPREVMNHITANYLPLVVRKQLGLYCFIEPDVPVALNGDPMRLQQVISNLLSNAIKFTDTGCIVLHVRADGDYLSIRVRDTGVGIPAKEVVRLFDPFFQVGTGVQRNFQGTGLGLAICEKLISMMDGDISVDSEPGMGSQFTVRIPLYGAQYPQKKGVEGLSGKRCWLAVRNASLCQFLETSLQRSGIVVTTYEGQEPTPEDVLITDEVVSKKWQGRAVVTFCRRHIGIPLEKAPGEWVHSVAAPHELPALLARIYLIEMESDDPANALPSTDKAVSDNDDMMILVVDDHPINRRLLADQLGSLGYQCKTANDGVDALNVLSKNHIDIVLSDVNMPNMDGYRLTQRIRQLGLTLPVIGVTANALAEEKQRCLESGMDSCLSKPVTLDVIKQTLTLYAERVRKSRDS [P0DMC5] | 6.287 ± 0.034 | 5.76 ± 0.49 | 6.22 ± 0.067 | 5.88 ± 0.48 | 2.98 ± 0.21 | 6.119 ± 0.024 | 13.1 ± 2.3 | 6.01 ± 0.37 | 11.6 ± 0.28 | 6.1 ± 0.12 | 11.8 ± 0.82 | – |
| MTEAQRHQILLEMLAQLGFVTVEKVVERLGISPATARRDINKLDESGKLKKVRNGAEAITQQRPRWTPMNLHQAQNHDEKVRIAKAASQLVNPGESVVINCGSTAFLLGREMCGKPVQIITNYLPLANYLIDQEHDSVIIMGGQYNKSQSITLSPQGSENSLYAGHWMFTSGKGLTAEGLYKTDMLTAMAEQKMLSVVGKLVVLVDSSKIGERAGMLFSRADQIDMLITGKNANPEILQQLEAQGVSILRV [P0A9W0] | 5.84 ± 0.28 | 6.01 ± 0.41 | 5.66 ± 0.8 | 5.95 ± 0.36 | 3.08 ± 0.11 | 6 ± 0.48 | 10.6 ± 1.7 | 5.68 ± 0.2 | 10.9 ± 0.72 | 6.75 ± 1.5 | 13.3 ± 0.25 | 5.74 ± 0.06 |
| MKLTDADNAADGIFFPALEQNMMGAVLINENDEVMFFNPAAEKLWGYKREEVIGNNIDMLIPRDLRPAHPEYIRHNREGGKARVEGMSRELQLEKKDGSKIWTRFALSKVSAEGKVYYLALVRDASVEMAQKEQTRQLIIAVDHLDRPVIVLDPERHIVQCNRAFTEMFGYCISEASGMQPDTLLNIPEFPADNRIRLQQLLWKTARDQDEFLLLTRTGEKIWIKASISPVYDVLAHLQNLVMTFSDITEERQIRQLEGNILAAMCSSPPFHEMGEIICRNIESVLNESHVSLFALRNGMPIHWASSSHGAEIQNAQSWSATIRQRDGAPAGILQIKTSSGAETSAFIERVADISQHMAALALEQEKSRQHIEQLIQFDPMTGLPNRNNLHNYLDDLVDKAVSPVVYLIGVDHIQDVIDSLGYAWADQALLEVVNRFREKLKPDQYLCRIEGTQFVLVSLENDVSNITQIADELRNVVSKPIMIDDKPFPLTLSIGISYDLGKNRDYLLSTAHNAMDYIRKNGGNGWQFFSPAMNEMVKERLVLGAALKEAISNNQLKLVYQPQIFAETGELYGIEALARWHDPLHGHVPPSRFIPLAEEIGEIENIGRWVIAEACRQLAEWRSQNIHIPALSVNLSALHFRSNQLPNQVSDAMHAWGIDGHQLTVEITESMMMEHDTEIFKRIQILRDMGVGLSVDDFGTGFSGLSRLVSLPVTEIKIDKSFVDRCLTEKRILALLEAITSIGQSLNLTVVAEGVETKEQFEMLRKIHCRVIQGYFFSRPLPAEEIPGWMSSVLPLKI | 3.42 ± 0.28 | 4.21 ± 0.49 | 3.8 ± 0.26 | 3.55 ± 0.9 | 1.63 ± 0.42 | 4.27 ± 0.69 | 6.85 ± 0.2 | 4.01 ± 0.26 | 7.043 ± 0.059 | 2.56 ± 0.83 | 4.93 ± 0.014 | 5.66 ± 0.45 |
| MNEAVSPGALSTLFTDARTHNGWRETPVSDETLREIYALMKWGPTSANCSPARIVFTRTAEGKERLRPALSSGNLQKTLTAPVTAIVAWDSEFYERLPLLFPHGDARSWFTSSPQLAEETAFRNSSMQAAYLIVACRALGLDTGPMSGFDRQHVDDAFFTGSTLKSNLLINIGYGDSSKLYARLPRLSFEEACGLL | 1.43 | 0.257 ± 0.15 | 0.612 ± 0.095 | 0.402 | – | – | – | 0.94 ± 0.6 | – | – | – | – |
| MNQNLLVTKRDGSTERINLDKIHRVLDWAAEGLHNVSISQVELRSHIQFYDGIKTSDIHETIIKAAADLISRDAPDYQYLAARLAIFHLRKKAYGQFEPPALYDHVVKMVEMGKYDNHLLEDYTEEEFKQMDTFIDHDRDMTFSYAAVKQLEGKYLVQNRVTGEIYESAQFLYILVAACLFSNYPRETRLQYVKRFYDAVSTFKISLPTPIMSGVRTPTRQFSSCVLIECGDSLDSINATSSAIVKYVSQRAGIGINAGRIRALGSPIRGGEAFHTGCIPFYKHFQTAVKSCSQGGVRGGAATLFYPMWHLEVESLLVLKNNRGVEGNRVRHMDYGVQINKLMYTRLLKGEDITLFSPSDVPGLYDAFFADQEEFERLYTKYEKDDSIRKQRVKAVELFSLMMQERASTGRIYIQNVDHCNTHSPFDPAIAPVRQSNLCLEIALPTKPLNDVNDENGEIALCTLSAFNLGAINNLDELEELAILAVRALDALLDYQDYPIPAAKRGAMGRRTLGIGVINFAYYLAKHGKRYSDGSANNLTHKTFEAIQYYLLKASNELAKEQGACPWFNETTYAKGILPIDTYKKDLDTIANEPLHYDWEALRESIKTHGLRNSTLSALMPSETSSQISNATNGIEPPRGYVSIKASKDGILRQVVPDYEHLHDAYELLWEMPGNDGYLQLVGIMQKFIDQSISANTNYDPSRFPSGKVPMQQLLKDLLTAYKFGVKTLYYQNTRDGAEDAQDDLVPSIQDDGCESGACKI | 3.93 ± 0.074 | 4.03 ± 0.099 | 4.24 ± 0.14 | 3.67 ± 0.52 | 3.07 ± 0.15 | 4.91 ± 0.43 | 9.24 ± 1.7 | 3.85 ± 0.23 | 5.89 ± 0.22 | 5.93 ± 0.08 | 11.1 ± 0.48 | 4.05 ± 0.63 |
